The series deals with the molecule itself. The series is described as follows: SEC.

Several values for one entry are separate records, joined by “and”; a condition that tells them apart may be missing. Identical values can stand only once.

B1: PKM2 R399E (enzyme)
chain: not shown
The term stoichiometry N denotes a count of units in the complex or per binding partner. For B1, the “stoichiometry N” value is 4 and 2.

(Values after publication PMC7042059 (FEBS letters, 2019).)
